Target: the molecule itself
Test: SEC

B1: MDM2 RING homodimer (MDM2 428-C), tag removed (domain or fragment)
chain: SSLPLNAIEPCVICQGRPKNGCIVHGKTGHLMACFTCAKKLKKRNKPCPVCRQPIQMIVLTYFP
- binding result: binds

Reference: article PMC6205632 (Nature structural & molecular biology, 2017)
